Experimental data reported in US20150344570A1 (published 2015).

B1: GpH7-B3 variant A330_05P/GpL16-k0 (antibody, human IgG1, kappa)
heavy: not shown
light: DIVMTQSPLSLPVTPGEPASISCQASESLVHSNRNTYLHWYLQKPGQSPQLLIYKVSNRFSGVPDRFSGSGSGTDFTLKISRVEAEDVGVYYCSQNTHVPPTFGQGTKVEIERTVAAPSVFIFPPSDEQLKSGTASVVCLLNNFYPREAKVQWKVDNALQSGNSQESVTEQDSKDSTYSLSSTLTLSKADYEKHKVYACEVTHQGLSSPVTKSFNRGEC
notes: also called Ho Ab A330_05P
B2: GpH7-B3 variant E333_03V/GpL16-k0 (antibody, human IgG1, kappa)
heavy: not shown
light: B1 light
notes: also called Ho Ab E333_03V
B3: GpH7-B3 variant E333_13S/GpL16-k0 (antibody, human IgG1, kappa)
heavy: not shown
light: B1 light
notes: also called Ho Ab E333_13S
B4: GpH7-B3 variant E269_04F/GpL16-k0 (antibody, human IgG1, kappa)
heavy: not shown
light: B1 light
notes: also called Ho Ab E269_04F
B5: GpH7-B3 variant G236_20W/GpL16-k0 (antibody, human IgG1, kappa)
heavy: not shown
light: B1 light
notes: also called Ho Ab G236_20W
B6: GpH7-B3 variant E333_04F/GpL16-k0 (antibody, human IgG1, kappa)
heavy: not shown
light: B1 light
notes: also called Ho Ab E333_04F
B7: GpH7-B3 variant H268_08L/GpL16-k0 (antibody, human IgG1, kappa)
heavy: not shown
light: B1 light
notes: also called Ho Ab H268_08L
B8: GpH7-B3 variant E269_20W/GpL16-k0 (antibody, human IgG1, kappa)
heavy: not shown
light: B1 light
notes: also called Ho Ab E269_20W
B9: GpH7-B3 variant E269_03V/GpL16-k0 (antibody, human IgG1, kappa)
heavy: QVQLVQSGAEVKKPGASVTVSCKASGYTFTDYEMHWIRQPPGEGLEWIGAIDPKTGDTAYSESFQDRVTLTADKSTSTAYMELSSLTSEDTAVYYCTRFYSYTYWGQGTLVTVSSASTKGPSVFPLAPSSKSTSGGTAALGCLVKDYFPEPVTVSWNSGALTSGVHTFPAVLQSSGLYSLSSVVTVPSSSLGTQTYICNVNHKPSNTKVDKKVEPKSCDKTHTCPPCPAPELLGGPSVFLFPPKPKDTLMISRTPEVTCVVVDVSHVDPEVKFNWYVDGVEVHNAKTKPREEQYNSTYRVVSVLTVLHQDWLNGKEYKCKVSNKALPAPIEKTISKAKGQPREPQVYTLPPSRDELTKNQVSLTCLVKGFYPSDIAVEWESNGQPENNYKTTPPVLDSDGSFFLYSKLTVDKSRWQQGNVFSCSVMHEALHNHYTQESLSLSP
light: B1 light
notes: also called Ho Ab E269_03V
B10: GpH7-B3 variant A330_16H/GpL16-k0 (antibody, human IgG1, kappa)
heavy: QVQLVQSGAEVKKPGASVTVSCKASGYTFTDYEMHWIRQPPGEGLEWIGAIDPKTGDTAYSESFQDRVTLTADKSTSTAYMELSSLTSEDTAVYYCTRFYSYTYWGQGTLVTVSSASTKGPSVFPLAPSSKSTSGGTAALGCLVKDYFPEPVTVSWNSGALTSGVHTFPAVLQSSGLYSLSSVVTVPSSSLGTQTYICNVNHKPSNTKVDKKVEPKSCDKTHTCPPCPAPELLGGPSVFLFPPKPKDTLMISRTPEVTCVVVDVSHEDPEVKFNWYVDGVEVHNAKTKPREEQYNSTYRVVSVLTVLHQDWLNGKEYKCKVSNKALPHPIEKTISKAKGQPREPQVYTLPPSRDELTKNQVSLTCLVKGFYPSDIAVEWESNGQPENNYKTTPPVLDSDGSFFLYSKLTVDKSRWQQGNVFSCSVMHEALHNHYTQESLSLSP
light: B1 light
notes: also called Ho Ab A330_16H
B11: GpH7-B3 variant E333_16H/GpL16-k0 (antibody, human IgG1, kappa)
heavy: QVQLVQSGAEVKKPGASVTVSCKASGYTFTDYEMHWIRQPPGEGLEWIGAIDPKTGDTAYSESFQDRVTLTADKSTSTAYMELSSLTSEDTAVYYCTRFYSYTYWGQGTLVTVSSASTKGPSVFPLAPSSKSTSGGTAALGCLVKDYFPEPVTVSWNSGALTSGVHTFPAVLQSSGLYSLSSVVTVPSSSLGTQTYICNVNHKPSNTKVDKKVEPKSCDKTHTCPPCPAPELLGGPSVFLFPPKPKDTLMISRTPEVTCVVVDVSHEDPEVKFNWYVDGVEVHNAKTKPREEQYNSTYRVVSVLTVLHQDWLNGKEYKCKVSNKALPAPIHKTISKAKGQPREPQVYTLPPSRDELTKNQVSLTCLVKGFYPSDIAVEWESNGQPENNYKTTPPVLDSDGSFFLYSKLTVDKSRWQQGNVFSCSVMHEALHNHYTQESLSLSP
light: B1 light
notes: also called Ho Ab E333_16H
B12: GpH7-B3 variant E269_08L/GpL16-k0 (antibody, human IgG1, kappa)
heavy: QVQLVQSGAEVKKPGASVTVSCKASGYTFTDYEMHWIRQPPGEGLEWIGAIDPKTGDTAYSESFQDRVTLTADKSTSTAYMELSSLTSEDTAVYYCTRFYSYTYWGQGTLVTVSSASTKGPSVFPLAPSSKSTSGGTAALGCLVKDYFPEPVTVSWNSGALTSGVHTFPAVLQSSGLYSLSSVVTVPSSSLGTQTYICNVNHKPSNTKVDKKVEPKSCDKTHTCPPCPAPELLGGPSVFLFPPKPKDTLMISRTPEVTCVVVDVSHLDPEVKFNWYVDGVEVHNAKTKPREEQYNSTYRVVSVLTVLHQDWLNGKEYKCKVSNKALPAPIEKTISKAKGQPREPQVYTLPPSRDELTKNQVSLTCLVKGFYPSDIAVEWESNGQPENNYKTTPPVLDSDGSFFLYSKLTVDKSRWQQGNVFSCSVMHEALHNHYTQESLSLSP
light: B1 light
notes: also called Ho Ab E269_08L
B13: GpH7-B3 variant E333_12R/GpL16-k0 (antibody, human IgG1, kappa)
heavy: not shown
light: B1 light
notes: also called Ho Ab E333_12R
B14: GpH7-B3 variant H268_12R/GpL16-k0 (antibody, human IgG1, kappa)
heavy: not shown
light: B1 light
notes: also called Ho Ab H268_12R
B15: GpH7-B3 variant A330_09D/GpL16-k0 (antibody, human IgG1, kappa)
heavy: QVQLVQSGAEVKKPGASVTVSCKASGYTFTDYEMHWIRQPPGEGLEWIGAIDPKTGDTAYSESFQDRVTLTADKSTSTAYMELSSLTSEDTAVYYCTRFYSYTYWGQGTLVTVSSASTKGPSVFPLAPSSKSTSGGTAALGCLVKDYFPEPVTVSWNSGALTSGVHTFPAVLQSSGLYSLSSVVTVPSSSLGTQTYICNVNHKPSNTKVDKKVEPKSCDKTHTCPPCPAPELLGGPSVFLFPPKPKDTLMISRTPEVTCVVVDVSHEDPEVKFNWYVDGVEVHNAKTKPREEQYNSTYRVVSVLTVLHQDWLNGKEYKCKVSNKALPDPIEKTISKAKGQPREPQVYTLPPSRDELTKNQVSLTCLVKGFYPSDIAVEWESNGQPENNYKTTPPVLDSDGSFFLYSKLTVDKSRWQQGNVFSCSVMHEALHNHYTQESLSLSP
light: B1 light
notes: also called Ho Ab A330_09D
B16: GpH7-B3 variant E269_02A/GpL16-k0 (antibody, human IgG1, kappa)
heavy: not shown
light: B1 light
notes: also called Ho Ab E269_02A
B17: GpH7-B3 variant A330_11K/GpL16-k0 (antibody, human IgG1, kappa)
heavy: not shown
light: B1 light
notes: also called Ho Ab A330_11K
B18: GpH7-B3 variant E269_07I/GpL16-k0 (antibody, human IgG1, kappa)
heavy: not shown
light: B1 light
notes: also called Ho Ab E269_07I
B19: GpH7-B3 variant E333_14T/GpL16-k0 (antibody, human IgG1, kappa)
heavy: not shown
light: B1 light
notes: also called Ho Ab E333_14T
B20: GpH7-B3 variant E333_15Y/GpL16-k0 (antibody, human IgG1, kappa)
heavy: not shown
light: B1 light
notes: also called Ho Ab E333_15Y
B21: GpH7-B3 variant E333_05P/GpL16-k0 (antibody, human IgG1, kappa)
heavy: not shown
light: B1 light
notes: also called Ho Ab E333_05P
B22: GpH7-B3 variant H268_07I/GpL16-k0 (antibody, human IgG1, kappa)
heavy: not shown
light: B1 light
notes: also called Ho Ab H268_07I
B23: GpH7-B3 variant E269_16H/GpL16-k0 (antibody, human IgG1, kappa)
heavy: not shown
light: B1 light
notes: also called Ho Ab E269_16H
B24: GpH7-B3 variant E269_06M/GpL16-k0 (antibody, human IgG1, kappa)
heavy: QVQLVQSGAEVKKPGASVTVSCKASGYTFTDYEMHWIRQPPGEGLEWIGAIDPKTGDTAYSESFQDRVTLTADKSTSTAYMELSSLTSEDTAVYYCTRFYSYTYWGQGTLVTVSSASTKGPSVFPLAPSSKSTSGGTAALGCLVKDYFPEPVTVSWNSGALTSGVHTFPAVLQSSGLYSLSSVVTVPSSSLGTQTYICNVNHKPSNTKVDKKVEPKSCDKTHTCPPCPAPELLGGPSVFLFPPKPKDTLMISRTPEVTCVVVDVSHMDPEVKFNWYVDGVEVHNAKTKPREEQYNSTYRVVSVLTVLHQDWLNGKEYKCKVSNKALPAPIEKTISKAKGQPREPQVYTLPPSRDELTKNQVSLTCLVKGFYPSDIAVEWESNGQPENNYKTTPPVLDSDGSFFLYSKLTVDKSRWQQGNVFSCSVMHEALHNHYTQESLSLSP
light: B1 light
notes: also called Ho Ab E269_06M
B25: GpH7-B3 variant A330_08L/GpL16-k0 (antibody, human IgG1, kappa)
heavy: not shown
light: B1 light
notes: also called Ho Ab A330_08L
B26: GpH7-B3 variant E269_14T/GpL16-k0 (antibody, human IgG1, kappa)
heavy: not shown
light: B1 light
notes: also called Ho Ab E269_14T
B27: GpH7-B3 variant H268_05P/GpL16-k0 (antibody, human IgG1, kappa)
heavy: not shown
light: B1 light
notes: also called Ho Ab H268_05P
B28: GpH7-B3 variant E269_05P/GpL16-k0 (antibody, human IgG1, kappa)
heavy: not shown
light: B1 light
notes: also called Ho Ab E269_05P
B29: GpH7-B3 variant E333_02A/GpL16-k0 (antibody, human IgG1, kappa)
heavy: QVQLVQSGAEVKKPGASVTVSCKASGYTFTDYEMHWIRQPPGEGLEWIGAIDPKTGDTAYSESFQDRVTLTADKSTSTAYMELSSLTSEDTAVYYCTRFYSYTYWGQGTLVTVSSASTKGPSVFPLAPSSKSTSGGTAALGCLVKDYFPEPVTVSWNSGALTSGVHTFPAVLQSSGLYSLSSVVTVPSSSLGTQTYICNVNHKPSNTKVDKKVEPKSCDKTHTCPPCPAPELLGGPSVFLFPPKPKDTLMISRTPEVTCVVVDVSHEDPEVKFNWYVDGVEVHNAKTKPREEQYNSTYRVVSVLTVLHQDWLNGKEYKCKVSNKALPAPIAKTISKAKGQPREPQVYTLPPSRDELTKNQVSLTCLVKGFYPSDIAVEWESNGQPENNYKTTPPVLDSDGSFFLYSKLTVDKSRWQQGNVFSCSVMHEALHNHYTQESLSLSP
light: B1 light
notes: also called Ho Ab E333_02A
B30: GpH7-B3 variant E333_08L/GpL16-k0 (antibody, human IgG1, kappa)
heavy: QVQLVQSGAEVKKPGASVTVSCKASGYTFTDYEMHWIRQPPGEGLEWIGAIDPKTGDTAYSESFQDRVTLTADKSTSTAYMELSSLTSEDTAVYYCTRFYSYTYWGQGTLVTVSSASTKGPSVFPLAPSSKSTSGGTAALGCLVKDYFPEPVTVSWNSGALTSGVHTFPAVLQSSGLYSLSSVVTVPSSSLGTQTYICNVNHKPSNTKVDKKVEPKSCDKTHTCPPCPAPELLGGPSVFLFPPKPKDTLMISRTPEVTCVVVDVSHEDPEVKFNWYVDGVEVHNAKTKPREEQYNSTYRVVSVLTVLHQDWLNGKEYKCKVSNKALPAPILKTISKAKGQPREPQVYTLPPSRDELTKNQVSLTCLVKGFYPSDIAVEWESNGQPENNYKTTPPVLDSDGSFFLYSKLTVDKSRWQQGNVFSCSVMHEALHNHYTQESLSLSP
light: B1 light
notes: also called Ho Ab E333_08L
B31: GpH7-B3 variant H268_14T/GpL16-k0 (antibody, human IgG1, kappa)
heavy: not shown
light: B1 light
notes: also called Ho Ab H268_14T
B32: GpH7-B3 variant E333_09D/GpL16-k0 (antibody, human IgG1, kappa)
heavy: not shown
light: B1 light
notes: also called Ho Ab E333_09D
B33: GpH7-B3 variant E333_06M/GpL16-k0 (antibody, human IgG1, kappa)
heavy: not shown
light: B1 light
notes: also called Ho Ab E333_06M
B34: GpH7-B3 variant E269_18N/GpL16-k0 (antibody, human IgG1, kappa)
heavy: not shown
light: B1 light
notes: also called Ho Ab E269_18N
B35: GpH7-B3 variant E333_11K/GpL16-k0 (antibody, human IgG1, kappa)
heavy: not shown
light: B1 light
notes: also called Ho Ab E333_11K
B36: GpH7-B3 variant E333_01G/GpL16-k0 (antibody, human IgG1, kappa)
heavy: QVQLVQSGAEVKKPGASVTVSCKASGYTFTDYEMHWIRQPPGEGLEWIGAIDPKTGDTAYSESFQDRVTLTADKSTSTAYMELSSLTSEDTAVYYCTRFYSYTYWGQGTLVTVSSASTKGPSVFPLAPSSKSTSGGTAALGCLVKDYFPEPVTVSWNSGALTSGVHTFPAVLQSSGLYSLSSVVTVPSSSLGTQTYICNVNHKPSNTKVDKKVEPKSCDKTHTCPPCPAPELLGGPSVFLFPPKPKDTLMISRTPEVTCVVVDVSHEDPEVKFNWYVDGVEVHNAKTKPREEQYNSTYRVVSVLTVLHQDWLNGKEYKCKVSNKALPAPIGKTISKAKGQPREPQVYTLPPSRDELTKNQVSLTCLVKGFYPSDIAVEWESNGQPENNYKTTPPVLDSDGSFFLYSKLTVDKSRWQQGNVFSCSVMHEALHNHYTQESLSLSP
light: B1 light
notes: also called Ho Ab E333_01G
B37: GpH7-B3 variant E333_07I/GpL16-k0 (antibody, human IgG1, kappa)
heavy: not shown
light: B1 light
notes: also called Ho Ab E333_07I
B38: GpH7-B3 variant E269_13S/GpL16-k0 (antibody, human IgG1, kappa)
heavy: not shown
light: B1 light
notes: also called Ho Ab E269_13S
B39: GpH7-B3 variant E269_19Q/GpL16-k0 (antibody, human IgG1, kappa)
heavy: not shown
light: B1 light
notes: also called Ho Ab E269_19Q
B40: GpH7-B3 variant G236_02A/GpL16-k0 (antibody, human IgG1, kappa)
heavy: not shown
light: B1 light
notes: also called Ho Ab G236_02A
B41: GpH7-B3 variant A330_14T/GpL16-k0 (antibody, human IgG1, kappa)
heavy: not shown
light: B1 light
notes: also called Ho Ab A330_14T
B42: GpH7-B3 variant H268_02A/GpL16-k0 (antibody, human IgG1, kappa)
heavy: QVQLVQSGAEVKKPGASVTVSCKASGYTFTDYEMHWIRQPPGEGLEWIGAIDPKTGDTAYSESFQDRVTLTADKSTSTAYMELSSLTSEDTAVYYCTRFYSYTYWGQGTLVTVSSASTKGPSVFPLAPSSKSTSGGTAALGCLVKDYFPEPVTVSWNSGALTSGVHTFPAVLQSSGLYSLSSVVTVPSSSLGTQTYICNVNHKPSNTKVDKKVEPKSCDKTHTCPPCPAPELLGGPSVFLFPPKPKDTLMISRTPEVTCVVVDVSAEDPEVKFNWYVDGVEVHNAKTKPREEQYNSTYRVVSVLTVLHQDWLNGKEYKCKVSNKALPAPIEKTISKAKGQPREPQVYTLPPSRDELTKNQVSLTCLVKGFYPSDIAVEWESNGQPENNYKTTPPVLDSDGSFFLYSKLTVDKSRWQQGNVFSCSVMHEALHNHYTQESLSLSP
light: B1 light
notes: also called Ho Ab H268_02A
B43: GpH7-B3 variant E269_15Y/GpL16-k0 (antibody, human IgG1, kappa)
heavy: not shown
light: B1 light
notes: also called Ho Ab E269_15Y
B44: GpH7-B3 variant E269_09D/GpL16-k0 (antibody, human IgG1, kappa)
heavy: not shown
light: B1 light
notes: also called Ho Ab E269_09D

The binders below were run against T1, FcγRIa (human, UniProt P12314 16-292) (assay: SPR (Biacore); Ho Ab relative to HoCon Ab = 100).
T1 construct: extracellular domain; also called FcgRI; 1a
Protocol: Analysis of interaction between objective antibody and the FcγR was carried out using Biacore T100 (GE Healthcare). HBS-EP+ (GE Healthcare) was used as the running buffer, and the measurement temperature was set to 25° C. Chips produced by immobilizing the antigen peptide by the amine coupling method to a Series S Sencor Chip CM5 (GE Healthcare), or alternatively, chips produced by allowing preliminarily biotinylated antigen peptides to interact with and immobilize onto a Series S Sensor Chip SA (certified) (GE Healthcare) were used. Antibodies of interest were captured onto an antigen peptide-immobilized chip, and allowed to interact to each FcγR diluted with running buffer. To regenerate and repeatedly use the chip, the antibodies captured on the chip were washed off by reacting 10 mM glycine-HCl, pH 1.5.

T1 sequence (P12314 16-292): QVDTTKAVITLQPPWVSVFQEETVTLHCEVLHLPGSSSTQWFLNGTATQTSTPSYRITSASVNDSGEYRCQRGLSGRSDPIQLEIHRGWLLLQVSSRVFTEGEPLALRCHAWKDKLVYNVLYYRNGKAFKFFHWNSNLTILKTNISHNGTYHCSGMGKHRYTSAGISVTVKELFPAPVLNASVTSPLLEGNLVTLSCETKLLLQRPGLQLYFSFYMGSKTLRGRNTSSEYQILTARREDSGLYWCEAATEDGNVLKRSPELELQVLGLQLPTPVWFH

Ho/Con_1a | Binder
84.4 % of control | B1
98.4 % of control | B2
101 % of control | B3
102 % of control | B4
104 % of control | B5
98.4 % of control | B6
105 % of control | B7
98.9 % of control | B8
95.4 % of control | B9
104 % of control | B10
99.1 % of control | B11
101 % of control | B12
94.2 % of control | B13
105 % of control | B14
108 % of control | B15
96.2 % of control | B16
94.1 % of control | B17
97.1 % of control | B18
98.7 % of control | B19
100 % of control | B20
99.2 % of control | B21
106 % of control | B22

Ho/Con_1a | Binder
98.4 % of control | B23
101 % of control | B24
106 % of control | B25
96.2 % of control | B26
108 % of control | B27
95.7 % of control | B28
96.2 % of control | B29
99 % of control | B30
109 % of control | B31
103 % of control | B32
99.5 % of control | B33
92.7 % of control | B34
95.8 % of control | B35
100 % of control | B36
99.9 % of control | B37
95.9 % of control | B38
99.6 % of control | B39
92.4 % of control | B40
105 % of control | B41
106 % of control | B42
100 % of control | B43
106 % of control | B44
